This note sets out measurements from article PMC5716572, “Regulation of potassium dependent ATPase (kdp) operon of Deinococcus radiodurans”.

Series [1] addresses T1, RR (KdpE-like response regulator) (Deinococcus radiodurans R1 ATCC BAA-816) (UniProt Q9RZP1).
T1 sequence: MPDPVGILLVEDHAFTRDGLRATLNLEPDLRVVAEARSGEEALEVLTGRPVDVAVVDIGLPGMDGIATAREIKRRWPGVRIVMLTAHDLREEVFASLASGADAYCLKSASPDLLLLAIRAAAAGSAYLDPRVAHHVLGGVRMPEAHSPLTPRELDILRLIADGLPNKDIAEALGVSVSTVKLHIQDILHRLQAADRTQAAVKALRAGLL
The series can be described thus: EMSA. The note with it: 20 mM HEPES pH 7.6, 10 mM (NH4)2SO4, 30 mM KCl, 1 mM EDTA, 1 mM DTT, 0.2% Tween20, 37°C 1 h; 10% native PAGE in 0.5X TBE. On the technique in general: Mobility shift assays separate free from complexed probe on a gel.

For series [2], the target named is T2, RR (KdpE-like response regulator) (Deinococcus radiodurans R1 ATCC BAA-816, UniProt Q9RZP1 1-209).
T2 sequence: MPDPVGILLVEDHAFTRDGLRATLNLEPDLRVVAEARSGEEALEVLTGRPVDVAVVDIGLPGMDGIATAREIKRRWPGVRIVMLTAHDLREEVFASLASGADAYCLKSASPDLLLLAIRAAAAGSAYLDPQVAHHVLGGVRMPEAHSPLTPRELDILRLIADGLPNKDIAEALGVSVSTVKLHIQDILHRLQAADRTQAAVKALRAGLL
In words: EMSA. The note with it: apparent; Hill coefficient 1.36 ± 0.17; unphosphorylated; 20 mM HEPES pH 7.6, 10 mM (NH4)2SO4, 30 mM KCl, 1 mM EDTA, 1 mM DTT, 0.2% Tween20, 37°C 1 h; 10% native PAGE in 0.5X TBE.

Series [3] concerns the target T2, RR (KdpE-like response regulator). In words: EMSA; 12% native PAGE; 20 mM HEPES pH 7.6, 10 mM (NH4)2SO4, 30 mM KCl, 1 mM EDTA, 1 mM DTT, 0.2% Tween20, 37°C 1 h; 10% native PAGE in 0.5X TBE. The note with it: protein: recombinant; tags: C-terminal His tag (pET29b NdeI/XhoI, Ni-NTA; position implied by vector); chain copies: 2; label: DIG-ddUTP; blunt.

For the molecule “GGCCTTGATGAGGTTCTTGTCCTTGGCGTACTTGTTGAGCACGCGGGTGTACGCCGTCTTGAAGCCGGTCAGCGGGGTGCCGCCGTCGCGGGTGCGGATCATGTTGGCGTAGGTCAGGATGTTGTCGCTGGCGTAGGTGTTGGCGTGGATAAA (double strand) [nsDNA (DR_0906 fragment)]”, the binding entry in series [1] is on record as “no binding”.

With PkdpB-200, the Kd in series [2] came to 3.62 µM.

B1: PkdpB-38 (dsDNA)
DNA 1: AACGGCGCTATGAGTCTTTCTTCTTTCCGGTGGCGGCC
DNA 2: GGCCGCCACCGGAAAGAAGAAAGACTCATAGCGCCGTT
With B1, the binding result in series [3] was “binds”.
